Reference: PMC9482650, “Quantitative fragmentomics allow affinity mapping of interactomes” (Nature Communications, 2022)

T1: NHERF3_1, Q5T2W1
T1 sequence (Q5T2W1 4-100, limits assumed, looked up): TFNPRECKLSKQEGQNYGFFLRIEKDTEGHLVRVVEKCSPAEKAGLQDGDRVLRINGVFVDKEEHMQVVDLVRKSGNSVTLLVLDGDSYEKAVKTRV

T2: PDZRN3_1, Q9UPQ7
T2 sequence (Q9UPQ7 244-349, limits assumed, looked up): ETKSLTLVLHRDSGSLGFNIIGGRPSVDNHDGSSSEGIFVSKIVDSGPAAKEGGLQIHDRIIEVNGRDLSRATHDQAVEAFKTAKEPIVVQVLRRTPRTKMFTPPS

T3: MPDZ_12, O75970
T3 sequence (O75970 1857-1958, limits assumed, looked up): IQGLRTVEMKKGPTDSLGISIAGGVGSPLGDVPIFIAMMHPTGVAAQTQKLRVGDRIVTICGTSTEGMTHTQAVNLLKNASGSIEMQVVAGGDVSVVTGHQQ

T4: NHERF3_4, Q5T2W1
T4 sequence (Q5T2W1 373-468, limits assumed, looked up): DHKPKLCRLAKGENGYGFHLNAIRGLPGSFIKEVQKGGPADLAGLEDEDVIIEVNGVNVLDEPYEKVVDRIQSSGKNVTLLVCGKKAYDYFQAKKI

T5: MPDZ_5, O75970
T5 sequence (O75970 695-796, limits assumed, looked up): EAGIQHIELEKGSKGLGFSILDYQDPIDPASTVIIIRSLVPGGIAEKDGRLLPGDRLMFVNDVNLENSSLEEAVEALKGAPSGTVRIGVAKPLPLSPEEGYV

T6: ARHGAP21, Q5T5U3
T6 sequence (Q5T5U3 45-169, limits assumed, looked up): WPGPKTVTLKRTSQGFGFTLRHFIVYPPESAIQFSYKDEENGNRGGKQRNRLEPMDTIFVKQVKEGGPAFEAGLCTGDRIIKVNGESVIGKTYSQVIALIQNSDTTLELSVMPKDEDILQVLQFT

T7: MPDZ_10, O75970
T7 sequence (O75970 1624-1722, limits assumed, looked up): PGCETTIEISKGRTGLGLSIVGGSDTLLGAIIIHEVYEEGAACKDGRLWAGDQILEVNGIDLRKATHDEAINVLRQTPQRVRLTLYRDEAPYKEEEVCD

T8: APBA2_2, Q99767
T8 sequence (Q99767 654-744, limits assumed, looked up): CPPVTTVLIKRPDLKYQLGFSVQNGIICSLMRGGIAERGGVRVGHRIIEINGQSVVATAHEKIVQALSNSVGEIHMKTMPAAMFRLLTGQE

T9: DFNB31_2, Q9P202
T9 sequence (Q9P202 274-371, limits assumed, looked up): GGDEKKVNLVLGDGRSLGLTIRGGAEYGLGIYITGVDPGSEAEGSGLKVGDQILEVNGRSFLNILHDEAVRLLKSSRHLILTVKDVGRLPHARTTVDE

T10: LIN7A, O14910
T10 sequence (O14910 103-200, limits assumed, looked up): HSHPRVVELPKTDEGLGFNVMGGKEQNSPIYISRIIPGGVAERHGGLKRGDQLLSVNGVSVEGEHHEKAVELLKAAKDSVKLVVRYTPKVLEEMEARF

T11: DLG3_1, Q92796
T11 sequence (Q92796 125-227, limits assumed, looked up): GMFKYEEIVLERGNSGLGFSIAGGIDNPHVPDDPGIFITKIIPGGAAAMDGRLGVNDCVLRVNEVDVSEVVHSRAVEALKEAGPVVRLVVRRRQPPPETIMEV

T12: LRRC7, Q96NW7
T12 sequence (Q96NW7 1440-1537, limits assumed, looked up): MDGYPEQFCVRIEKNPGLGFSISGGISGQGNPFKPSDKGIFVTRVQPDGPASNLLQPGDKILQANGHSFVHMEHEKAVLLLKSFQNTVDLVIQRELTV

T13: TX1BP3, O14907
T13 sequence (O14907 10-122, limits assumed, looked up): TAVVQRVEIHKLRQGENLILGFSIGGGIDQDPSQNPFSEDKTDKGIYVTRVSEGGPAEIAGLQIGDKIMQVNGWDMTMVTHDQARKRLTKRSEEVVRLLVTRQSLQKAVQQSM

B1: LPXN, O60711 (peptide)
chain: QPCFNKLFPL
B2: TRPC5, Q9UL62 (peptide)
chain: GQEEQVTTRL

Biological target: T1, NHERF3_1, Q5T2W1
Experiment: holdup assay
Set-up: key: below the threshold = too weak to quantify, mostly under pKd 3.1 to 4
Settings: plain residues with an end cap or a label only (N-terminal biotin on a linker: ado-ado)

| Binder | pKd |
| --- | --- |
| B1 | 4.01 |
| B2 | 5.17 |

Biological target: PTPN3, P26045
Experiment: holdup assay
Set-up: key: below the threshold = too weak to quantify, mostly under pKd 3.1 to 4
Settings: plain residues with an end cap or a label only (N-terminal biotin on a linker: ado-ado)

PTPN3, P26045, sequence (P26045 505-587): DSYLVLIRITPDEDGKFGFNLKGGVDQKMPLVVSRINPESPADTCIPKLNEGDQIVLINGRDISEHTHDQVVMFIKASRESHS

| Binder | pKd |
| --- | --- |
| B1 | below the threshold |
| B2 | 4.54 |

Biological target: PICK1, Q9NRD5
Experiment: holdup assay
Set-up: key: below the threshold = too weak to quantify, mostly under pKd 3.1 to 4
Settings: plain residues with an end cap or a label only (N-terminal biotin on a linker: ado-ado)

PICK1, Q9NRD5, sequence (Q9NRD5 17-115): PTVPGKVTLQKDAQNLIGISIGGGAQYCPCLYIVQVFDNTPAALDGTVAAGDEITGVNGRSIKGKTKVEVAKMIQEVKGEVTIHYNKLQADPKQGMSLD

| Binder | pKd |
| --- | --- |
| B1 | below the threshold |
| B2 | 4.06 |

Biological target: DLG2_3, Q15700
Experiment: holdup assay
Set-up: key: below the threshold = too weak to quantify, mostly under pKd 3.1 to 4
Settings: plain residues with an end cap or a label only (N-terminal biotin on a linker: ado-ado)

| Binder | pKd |
| --- | --- |
| B1 | below the threshold |
| B2 | below the threshold |

Biological target: T2, PDZRN3_1, Q9UPQ7
Experiment: holdup assay
Set-up: key: below the threshold = too weak to quantify, mostly under pKd 3.1 to 4
Settings: plain residues with an end cap or a label only (N-terminal biotin on a linker: ado-ado)

| Binder | pKd |
| --- | --- |
| B1 | below the threshold |
| B2 | 3.8 |

Biological target: NOS1, P29475
Experiment: holdup assay
Set-up: key: below the threshold = too weak to quantify, mostly under pKd 3.1 to 4
Settings: plain residues with an end cap or a label only (N-terminal biotin on a linker: ado-ado)

NOS1, P29475, sequence (P29475 9-101): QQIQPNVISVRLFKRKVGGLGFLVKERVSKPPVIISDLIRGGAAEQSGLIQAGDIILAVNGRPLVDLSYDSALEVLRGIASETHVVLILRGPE

| Binder | pKd |
| --- | --- |
| B1 | 3.5 |
| B2 | 3.57 |

Biological target: TJP1_2, Q07157
Experiment: holdup assay
Set-up: key: below the threshold = too weak to quantify, mostly under pKd 3.1 to 4
Settings: plain residues with an end cap or a label only (N-terminal biotin on a linker: ado-ado)

TJP1_2, Q07157, sequence (Q07157 181-274): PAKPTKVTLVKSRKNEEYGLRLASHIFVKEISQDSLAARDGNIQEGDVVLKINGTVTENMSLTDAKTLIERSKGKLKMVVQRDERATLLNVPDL

| Binder | pKd |
| --- | --- |
| B1 | below the threshold |
| B2 | below the threshold |

Biological target: T3, MPDZ_12, O75970
Experiment: holdup assay
Set-up: key: below the threshold = too weak to quantify, mostly under pKd 3.1 to 4
Settings: plain residues with an end cap or a label only (N-terminal biotin on a linker: ado-ado)

| Binder | pKd |
| --- | --- |
| B1 | below the threshold |
| B2 | below the threshold |

Biological target: T4, NHERF3_4, Q5T2W1
Experiment: holdup assay
Set-up: key: below the threshold = too weak to quantify, mostly under pKd 3.1 to 4
Settings: plain residues with an end cap or a label only (N-terminal biotin on a linker: ado-ado)

| Binder | pKd |
| --- | --- |
| B1 | 3.73 |
| B2 | 5.33 |

Biological target: T5, MPDZ_5, O75970
Experiment: holdup assay
Set-up: key: below the threshold = too weak to quantify, mostly under pKd 3.1 to 4
Settings: plain residues with an end cap or a label only (N-terminal biotin on a linker: ado-ado)

| Binder | pKd |
| --- | --- |
| B1 | below the threshold |
| B2 | below the threshold |

Biological target: T6, ARHGAP21, Q5T5U3
Experiment: holdup assay
Set-up: key: below the threshold = too weak to quantify, mostly under pKd 3.1 to 4
Settings: plain residues with an end cap or a label only (N-terminal biotin on a linker: ado-ado)

| Binder | pKd |
| --- | --- |
| B1 | 3.91 |
| B2 | 4.07 |

Biological target: DLG1_2, Q12959
Experiment: holdup assay
Set-up: key: below the threshold = too weak to quantify, mostly under pKd 3.1 to 4
Settings: plain residues with an end cap or a label only (N-terminal biotin on a linker: ado-ado)

DLG1_2, Q12959, sequence (Q12959 314-412): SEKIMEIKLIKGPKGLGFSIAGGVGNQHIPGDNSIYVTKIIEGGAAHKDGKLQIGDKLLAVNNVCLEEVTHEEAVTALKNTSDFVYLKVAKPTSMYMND

| Binder | pKd |
| --- | --- |
| B1 | below the threshold |
| B2 | below the threshold |

Biological target: HTRA1, Q92743
Experiment: holdup assay
Set-up: key: below the threshold = too weak to quantify, mostly under pKd 3.1 to 4
Settings: plain residues with an end cap or a label only (N-terminal biotin on a linker: ado-ado)

HTRA1, Q92743, sequence (Q92743 360-477): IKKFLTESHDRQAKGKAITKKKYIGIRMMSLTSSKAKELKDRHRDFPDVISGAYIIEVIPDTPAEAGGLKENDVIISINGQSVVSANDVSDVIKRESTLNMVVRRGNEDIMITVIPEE

| Binder | pKd |
| --- | --- |
| B1 | below the threshold |
| B2 | 3.92 |

Biological target: T7, MPDZ_10, O75970
Experiment: holdup assay
Set-up: key: below the threshold = too weak to quantify, mostly under pKd 3.1 to 4
Settings: plain residues with an end cap or a label only (N-terminal biotin on a linker: ado-ado)

| Binder | pKd |
| --- | --- |
| B1 | below the threshold |
| B2 | below the threshold |

Biological target: MAST1, Q9Y2H9
Experiment: holdup assay
Set-up: key: below the threshold = too weak to quantify, mostly under pKd 3.1 to 4
Settings: plain residues with an end cap or a label only (N-terminal biotin on a linker: ado-ado)

MAST1, Q9Y2H9, sequence (Q9Y2H9 962-1065): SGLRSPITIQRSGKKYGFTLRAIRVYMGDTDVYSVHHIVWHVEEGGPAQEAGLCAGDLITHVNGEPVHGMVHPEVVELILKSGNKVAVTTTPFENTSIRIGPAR

| Binder | pKd |
| --- | --- |
| B1 | 4.33 |
| B2 | 4.8 |

Biological target: T8, APBA2_2, Q99767
Experiment: holdup assay
Set-up: key: below the threshold = too weak to quantify, mostly under pKd 3.1 to 4
Settings: plain residues with an end cap or a label only (N-terminal biotin on a linker: ado-ado)

| Binder | pKd |
| --- | --- |
| B1 | below the threshold |
| B2 | below the threshold |

Biological target: T9, DFNB31_2, Q9P202
Experiment: holdup assay
Set-up: key: below the threshold = too weak to quantify, mostly under pKd 3.1 to 4
Settings: plain residues with an end cap or a label only (N-terminal biotin on a linker: ado-ado)

| Binder | pKd |
| --- | --- |
| B1 | below the threshold |
| B2 | below the threshold |

Biological target: T10, LIN7A, O14910
Experiment: holdup assay
Set-up: key: below the threshold = too weak to quantify, mostly under pKd 3.1 to 4
Settings: plain residues with an end cap or a label only (N-terminal biotin on a linker: ado-ado)

| Binder | pKd |
| --- | --- |
| B1 | below the threshold |
| B2 | below the threshold |

Biological target: T11, DLG3_1, Q92796
Experiment: holdup assay
Set-up: key: below the threshold = too weak to quantify, mostly under pKd 3.1 to 4
Settings: plain residues with an end cap or a label only (N-terminal biotin on a linker: ado-ado)

| Binder | pKd |
| --- | --- |
| B1 | below the threshold |
| B2 | below the threshold |

Biological target: T12, LRRC7, Q96NW7
Experiment: holdup assay
Set-up: key: below the threshold = too weak to quantify, mostly under pKd 3.1 to 4
Settings: plain residues with an end cap or a label only (N-terminal biotin on a linker: ado-ado)

| Binder | pKd |
| --- | --- |
| B1 | below the threshold |
| B2 | below the threshold |

Biological target: T13, TX1BP3, O14907
Experiment: holdup assay
Set-up: key: below the threshold = too weak to quantify, mostly under pKd 3.1 to 4
Settings: plain residues with an end cap or a label only (N-terminal biotin on a linker: ado-ado)

| Binder | pKd |
| --- | --- |
| B1 | below the threshold |
| B2 | 3.69 |

Biological target: DLG2_2, Q15700
Experiment: holdup assay
Set-up: key: below the threshold = too weak to quantify, mostly under pKd 3.1 to 4
Settings: plain residues with an end cap or a label only (N-terminal biotin on a linker: ado-ado)

| Binder | pKd |
| --- | --- |
| B1 | below the threshold |
| B2 | below the threshold |

Biological target: IL16_3, Q14005
Experiment: holdup assay
Set-up: key: below the threshold = too weak to quantify, mostly under pKd 3.1 to 4
Settings: plain residues with an end cap or a label only (N-terminal biotin on a linker: ado-ado)

IL16_3, Q14005, sequence (Q14005 1107-1207): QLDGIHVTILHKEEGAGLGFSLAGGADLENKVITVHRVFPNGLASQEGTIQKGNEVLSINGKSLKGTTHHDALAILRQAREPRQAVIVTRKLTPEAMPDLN

| Binder | pKd |
| --- | --- |
| B1 | below the threshold |
| B2 | below the threshold |

Biological target: MAGI2_5, Q86UL8
Experiment: holdup assay
Set-up: key: below the threshold = too weak to quantify, mostly under pKd 3.1 to 4
Settings: plain residues with an end cap or a label only (N-terminal biotin on a linker: ado-ado)

MAGI2_5, Q86UL8, sequence (Q86UL8 915-1017): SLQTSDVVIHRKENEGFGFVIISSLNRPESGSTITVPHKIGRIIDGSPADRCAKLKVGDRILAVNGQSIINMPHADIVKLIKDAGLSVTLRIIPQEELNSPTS

| Binder | pKd |
| --- | --- |
| B1 | below the threshold |
| B2 | 3.54 |
